Data taken from patent publication US20200308290A1.

Assays:
[1] = target: FcγRIIB on transfected CHO cells (UniProt P31994); test: flow cytometry on FcγRIIB-transfected CHO cells, detection with anti-human kappa antibody, GFI against nM
[2] = target: FcγRIIIA on transfected CHO cells (UniProt P08637); test: flow cytometry on FcγRIIIA-transfected CHO cells, detection with anti-human kappa antibody, GFI against nM
Sequence of FcγRIIIA on transfected CHO cells (P08637 17-254 limits assumed): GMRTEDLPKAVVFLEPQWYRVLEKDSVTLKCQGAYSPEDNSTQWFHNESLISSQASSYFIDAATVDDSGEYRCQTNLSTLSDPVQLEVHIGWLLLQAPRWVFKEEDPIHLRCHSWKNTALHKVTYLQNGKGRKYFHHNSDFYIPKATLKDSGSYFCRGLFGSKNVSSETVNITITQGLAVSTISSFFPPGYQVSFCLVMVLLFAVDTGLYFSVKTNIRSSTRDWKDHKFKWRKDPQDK

Sequence of FcγRIIB on transfected CHO cells (P31994 43-310 limits assumed): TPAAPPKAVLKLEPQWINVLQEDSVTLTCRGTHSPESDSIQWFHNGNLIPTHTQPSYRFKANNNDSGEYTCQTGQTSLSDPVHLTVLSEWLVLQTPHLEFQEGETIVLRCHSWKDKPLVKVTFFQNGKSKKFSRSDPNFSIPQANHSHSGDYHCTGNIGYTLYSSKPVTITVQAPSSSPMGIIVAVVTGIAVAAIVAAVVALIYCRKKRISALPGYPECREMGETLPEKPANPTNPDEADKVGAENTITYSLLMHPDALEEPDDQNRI

Row | EC50 (read off the curve) [1] [nM] | EC50 (read off the curve) [2] [nM] | Substance
1 | 2 | – | L328F (antibody)
2 | – | 4 | N297A (antibody)
3 | 0.7 | 1 | S267E (antibody)
4 | 0.3 | – | SELF (antibody)
